According to article PMC8996150, “The structure of Synechococcus elongatus enolase reveals key aspects of phosphoenolpyruvate binding” (Acta Crystallographica. Section F, Structural Biology …, 2022):

Substrate: O=C(O)[C@@H](CO)OP(=O)(O)O
Test: purified protein
Type: biochemical, Synechococcus elongatus
Settings: 100 mM HEPES pH 8.0, 100 mM KCl, 1.0 mM MgCl2, 30°C, dehydration direction

B1: SeEN (Synechococcus elongatus enolase) (Synechococcus elongatus PCC 7942 = FACHB-805) (protein)
chain: MPDDYGTQIAEITAREILDSRGRPTVEAEVHLEDGSVGLAQVPSGASTGTFEAHELRDDDPSRYGGKGVQKAVENVSAIEDALIGLSALDQEGLDKAMIALDGTPNKKNLGANAILAVSLATAHAAATSLNLPLYRYLGGPLANVLPVPMMNVINGGAHADNNVDFQEFMIMPVGAPSFKEALRWGAEVFHALAKVLKDKGLATGVGDEGGFAPNLGSNKEALELLLTAIEAAGYKPGEQVALAMDVASSEFYKNGLYTCDGVSHEPAGMIGILADLVSQYPIVSIEDGLQEDDWSNWKTLTQQLGSTVQLVGDDLFVTNPDRLQSGIEQGVGNAVLIKLNQIGTLTETLRTIDLATRSGYRSVISHRSGETEDTTIADLAVATRAGQIKTGSLSRSERIAKYNRLLRIEAALGENALYAGAIGLGPKGR
notes: full length, synthetic codon-optimized gene in pET-42a(+), C-terminal … (8xHis) tag kept, E. coli Arctic Express (DE3); mainly monomer in gel filtration, dimer in PEP crystal, octamer predicted
Km: 61 ± 4 µM | kcat: 7.4 ± 0.1 s⁻¹ | kcat/Km: 120000 M⁻¹ s⁻¹
